“Also recorded” adds a separate entry of the source.
T1: Neogenin (Homo sapiens, UniProt Q92859)
T1 construct: His-tagged proteins (2.5 μg/mL of extracellular-Neogenin or sRGMa or sRGMc) were then coated onto each well; His tag (coated format); Alkaline phosphatase (AP) fusion (solution format, Ec-Neogenin-AP); made in house
T1 sequence (Q92859 34-1105 limits assumed): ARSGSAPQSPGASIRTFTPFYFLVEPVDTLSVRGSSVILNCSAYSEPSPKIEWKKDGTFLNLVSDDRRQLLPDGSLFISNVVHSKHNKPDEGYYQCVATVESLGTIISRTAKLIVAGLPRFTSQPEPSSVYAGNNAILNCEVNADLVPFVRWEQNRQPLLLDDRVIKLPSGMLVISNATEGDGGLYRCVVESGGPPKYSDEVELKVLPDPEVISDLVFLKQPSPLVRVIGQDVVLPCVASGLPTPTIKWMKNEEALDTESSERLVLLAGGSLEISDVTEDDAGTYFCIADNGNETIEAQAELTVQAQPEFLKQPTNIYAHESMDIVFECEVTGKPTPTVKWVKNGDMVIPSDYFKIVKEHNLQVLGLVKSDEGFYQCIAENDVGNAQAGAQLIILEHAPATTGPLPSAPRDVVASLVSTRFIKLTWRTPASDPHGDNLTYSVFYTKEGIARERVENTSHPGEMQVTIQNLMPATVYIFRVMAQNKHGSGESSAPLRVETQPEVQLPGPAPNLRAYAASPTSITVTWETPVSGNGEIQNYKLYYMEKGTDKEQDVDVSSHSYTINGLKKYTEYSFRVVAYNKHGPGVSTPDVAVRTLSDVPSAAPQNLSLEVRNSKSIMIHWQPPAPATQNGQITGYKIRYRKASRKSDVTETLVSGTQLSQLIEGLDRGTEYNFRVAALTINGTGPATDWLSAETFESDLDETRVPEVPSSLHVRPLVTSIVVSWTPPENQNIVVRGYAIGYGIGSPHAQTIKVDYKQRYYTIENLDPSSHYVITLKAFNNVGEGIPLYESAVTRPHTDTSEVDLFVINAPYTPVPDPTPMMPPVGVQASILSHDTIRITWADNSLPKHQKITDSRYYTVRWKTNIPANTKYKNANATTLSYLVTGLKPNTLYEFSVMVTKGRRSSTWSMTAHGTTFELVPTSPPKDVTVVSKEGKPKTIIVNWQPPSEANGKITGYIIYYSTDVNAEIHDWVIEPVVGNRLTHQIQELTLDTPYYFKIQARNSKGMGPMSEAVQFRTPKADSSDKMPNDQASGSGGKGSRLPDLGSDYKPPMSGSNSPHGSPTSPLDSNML

B1: sRGMa: mouse RGMa cloned with His tag replacing the GPI-anchor, secreted soluble protein (protein)
chain: PHLRTFTDHFQTCKVQGAWPLIDNNYLNVQVTNTPVLPGSAATATSKLTIIFKNFQECVDQKVYQAEMDELPSAFADGSKNGGDKHGANSLKITEKVSGQHVEIQAKYIGTTIVVRQVGRYLTFAVRMPEEVVNAVEDRDSQGLYLCLRGCPLNQQIDFQAFRANAESPRRPAAASPSPVVPETFPYETAVAKCKEKLPVEDLYYQACVFDLLTTGDVNFTLAAYYALEDGKMLHSNKDKLHLFERTRELPGAVAAAA
modifications: left off: large carriers
notes: mouse RGMa cloned with His tag replacing the GPI-anchor, secreted soluble protein

Columns and labels:
b.end3 cells = assay: In vitro BBB permeability, Dextran-FITC extravasation in Boyden chamber; format: cell-based, mouse; settings: b.end3 monolayer; for extravasation of Dextran-FITC in sRGMa-treated cells: 4 h pre-treatment (10 μg/mL sRGMc, 10 μg/mL C3 Transferase or 10 μM Y27632), then RGMa 18 h
Experimental: (A) Neogenin expression was analyzed on the membrane of b.end3 cells using immunohistochemical staining and by Western blot. (B) Crystal violet staining showing the b.end3 cell monolayer, (C) Representative diagram of the boyden chamber set up and (D) BBB permeability in b.end3 cells. Serum-starved cells were incubated for 4 h with RGMa (10 μg/ml), C3 Transferase (10 μg/mL) or Y27632 (10 μM) or sRGMc (10 μg/mL) and were then incubated with sRGMa (5 μg/mL) for 18 h followed by seeding of Dextran-FITC onto the upper chamber. Extravasation was measured over a period of 60 min as described in the Examples. n=3, performed in triplicates.
b.End3 endothelial cells were used to generate an in vitro model of the human EC barrier lining the choroid plexus. Briefly, b.end3 cells were plated on polyethylene-coated 0.4 μm pore size Boyden chambers (Corning) at a density of 2×10^5 cells per well in DMEM, and were allowed to grow for 72 h to reach confluency (verified using crystal violet staining). After 72 h, cells were serum starved for 6 h and pre-treated for 4 h with 10 μg/mL sRGMc, 10 μg/mL C3 Transferase or 10 μM Y27632. RGMa was then added to the wells for 18 h. The transwells were then transferred to a new plate containing 500 μl of HBSS and 200 μl 4-KDa Dextran-FITC (25 mg/ml; Sigma-Aldrich) was added to the upper chambers. Tracer diffusion across the EC monolayer was assessed in 30 min intervals for a period of 1.5 h. FITC signal, which represented the amount of extravasation through the monolayer was analyzed with using a microplate reader.

[1] = test system: blood brain barrier of mice; assay: BBB permeability, Texas red dye leakage by widefield imaging; format: in vivo, mouse; settings: mice injected with RGMa alone; vs vehicle
Experimental: Mice were treated with RGMa (70 ug), RGMa (70 ug)+RGMc (70 ug), or Vehicle (1% BSA) 18 h prior to widefield imaging (100-300 ms exposure) prior to and following intravenous injection of Texas Red dye (0.5 mg) over time. […] (B) Quantification of the leakage of Texas Red dye (measured as the number of leakage sites/mm^2).
BBB integrity was assessed in mice treated with PBS (Vehicle), RGMa, RGMc, RGMa+ immunoglobulin domain of Neogenin (4Ig). Widefield imaging was then carried out under a Olympus microscope (BX6 1WI) prior to and following the injection of Texas red dye (100 uL, I.V., 5 mg/ml) using 100-300 ms exposure. Recording was performed from 0 min to 35 min following injection. Texas dye leakage was also assessed in RGMc knockout (KO) and wild type (WT) mice. The leakage of Texas-red dye was quantified by a blind experimenter measuring the number of leakage sites/mm^2. (A) Representative images of Texas red dye: PBS (Vehicle), RGMa, RGMa+RGMc and RGMa+4Ig (immunoglobulin domain of Neogenin). Quantification of the leakage of Texas Red dye in animals treated with (B) PBS (Vehicle), RGMa or RGMa+RGMc or in RGMc KO and WT mice or (C) PBS (Vehicle), RGMa, RGMa+RGMc or RGMa+4Ig.
Mice injected with BSA, RGMc, RGMa, or RGMa+RGMc. […] Leakage of Texas red dye was quantified by a blind experimenter measuring the number of leakage sites/mm^2. […]

Neogenin = target: T1, Neogenin; assay: In vitro competition binding assay (AP-tagged proteins); settings: pre-incubation of sRGMa with Ec-Neogenin-AP; compared to BSA control
Experimental: (C) Binding of Neogenin to bovine serum albumin (Neogenin+BSA), to RGMa (Neogenin+RGMa), and to RGMc (Neogenin+RGMc) in RGMa-AP and in RGMc-AP. Constructs overexpressing His-tagged sRGMa, sRGMc and the extracellular domains of Neogenin (Ec-Neogenin) were coated onto Poly-L-Lysine coated wells. Alkaline Phosphatase (AP)-tagged proteins (EC-Neogenin or RGMa or RGMc) were then added to each well and incubated at 37° C. for 1 h. Each well was washed and equilibrated with AP developing buffer (100 mM NaHCO3, 1 mM MgCl2). The reaction was initiated using AP developing buffer supplemented with p-nitrophenyl phosphate and then stopped following color development by adding 50 μl (0.1M) NaOH. The absorbance of each reaction was measured using a microplate autoreader at 405 nm as described in the Examples. (D) Binding of Neogenin-AP to bovine serum albumin (Neogenin-AP+BSA), to RGMa (Neogenin-AP+RGMa), and to RGMc (Neogenin-AP+RGMc). Competition assay was performed as described in the Examples and above but in which the constructs were reversed.
Using a 96-well microtiter plate (Corning), wells coated with 100 μl (10 μg/mL) of Poly-L-Lysine (Sigma-Aldrich) incubated at 4° C. overnight were then washed 3× with 100 μl of PBST (+0.02% Tween-20). […] The absorbance of each reaction was measured using a microplate autoreader (BioTek EL311 AutoReader) at 405 nm.

[2] = test system: Claudin 5 in b.End3 cells; assay: Claudin 5 expression in endothelial cells by Western blot; format: cell-based, mouse; settings: incubation with RGM proteins
Experimental: Cells were pretreated for 6 h with PBS, RGMc, RGMa or RGMc+RGMa. Western blotting was performed on the lysates with Claudin-5 and GAPDH antibodies.
Next, the BBB permeability was assessed by injecting mice with BSA, RGMa, RGMa plus RGMc and subsequently followed by assessment of Texas dye leakage using widefield imaging as an indication of BBB integrity. […] Thus, Claudin 5 expression following RGMa/c treatments of murine-derived brain endothelial cells (b.End3) was studied. B.En3 cells were grown up to 80% confluency and were treated with overnight incubation with RGM proteins.

Molecule | extravasation of Dextran-FITC in sRGMa-treated cells (b.end3 cells) | extravasation of Dextran-FITC (b.end3 cells; sRGMa alone, vs vehicle-treated wells) | BBB integrity, leakage of Texas Red dye [1] | reduction of binding intensity of RGMc to Neogenin (Neogenin) | reduction in Claudin 5 levels [2]
C3 Transferase [reference compound] | reduced | – | – | – | –
C[C@@H](N)[C@H]1CC[C@H](C(=O)Nc2ccncc2)CC1 [Y27632, reference compound] | reduced | – | – | – | –
B1 | – | increased | significantly disrupted BBB integrity; also recorded: significantly elevated leakage | 3 fold | 2 fold

Source: patent US10874712B2, “Methods, compounds and compositions for modulating blood brain barrier integrity and re-myelination” (University Health Network, priority 2015, dated 2020)
